Results from US20190276499A1, “Protein VII Fragments and Methods of Use Thereof for the Treatment of Inflammatory Disorders” (priority 2016, published 2019).

Tests used:
[1] = target: T1, HMGB2 (Homo sapiens, UniProt P26583); assay: Salt fractionation of nuclei, western blot for HMGB2; type: cell-based; settings: upon protein VII expression
T1 construct: endogenous in cells; host or cells: THP-1 (PMA-differentiated)
T1 sequence (P26583 1-209): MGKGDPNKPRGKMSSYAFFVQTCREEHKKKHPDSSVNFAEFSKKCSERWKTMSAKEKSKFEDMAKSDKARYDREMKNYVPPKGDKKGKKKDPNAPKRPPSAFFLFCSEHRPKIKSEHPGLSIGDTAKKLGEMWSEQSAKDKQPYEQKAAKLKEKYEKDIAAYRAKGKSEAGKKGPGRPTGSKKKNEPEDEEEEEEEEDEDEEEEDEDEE
Description: Salt fractionation of nuclei was adapted from established protocols (Zaret, K. (2005) Micrococcal nuclease analysis of chromatin structure. Curr. Protoc. Mol., Biol. Chapter 21, Unit 21.1; Teves et al. (2012) Methods Mol. Biol., 833:421-432). Briefly, 2-4×10^7 cells were collected and resuspended in 2 mL of ice-cold buffer I (0.32 M sucrose, 60 mM KCl, 15 mM NaCl, 5 mM MgCl2, 0.1 mM EGTA, 15 mM Tris, pH 7.5, 0.5 mM DTT, 0.1 mM PMSF and protease inhibitor cocktail from Roche). To dissolve the plasma membrane, 2 mL ice-cold buffer I supplemented with 0.1% IGEPAL were added and samples were incubated on ice for 10 minutes. The 4 mL of nuclei was layered on 8 mL of ice-cold buffer II (1.2 M sucrose, 60 mM KCl, 15 mM NaCl, 5 mM MgCl2, 0.1 mM EGTA, 15 mM Tris, pH 7.5, 0.5 mM DTT, 0.1 mM PMSF and protease inhibitor cocktail from Roche) and centrifuged for 20 minutes at 10,000×g and 4° C. The pelleted nuclei were resuspended in 400 μL buffer III (10 mM Tris pH 7.4, 2 mM MgCl2, 0.1 mM PMSF) supplemented with 5 mM CaCl2 and the DNA was digested to mononucleosomes by addition of 1 unit of MNase (Sigma-Aldrich, N3755). […] The final pellet was resuspended in 400 μL ddH2O and all samples were analyzed together by western blot. An aliquot of each supernatant was set aside for DNA purification using a PCR purification kit (Qiagen) and analyzed by agarose gel electrophoresis. […]

[2] = tested on: LPS induced lung injury; assay: Murine model of LPS induced lung injury, BAL fluid analysis; type: in vivo, mouse; settings: 24 hours after LPS exposure, versus mice expressing GFP
Description: All mice were housed in SPF conditions. All studies in mice were carried out in accordance with the recommendations in the Guide for the Care and Use of Laboratory Animals of the National Institutes of Health. C57BL/6J male mice aged 8-10 weeks were used for experiments. Mice were sedated with ketamine and xylazine. Once sedated, mice underwent orotrachial intubation, as described (Das et al. (2013) J. Vis. Exp., (73):e50318), with a 20G angiocatheter from BD (Franklin Lakes, N.J.). Mice subsequently received 5e10 GC of recombinant adenovirus expressing VII-GFP or GFP purified as described above. Four days after infection, mice were exposed to aerosolized LPS, 3 mg/mL for 30 minutes as described (Jeyaseelan et al. (2004) Infect. Immun., 72:7247-7256). One day after LPS exposure, BAL, and lung tissue were harvested as detailed (Nick et al. (2000) J. Immunol., 164:2151-2159) and examined for HMGB1 content (ELISA, Chondrex 6010) and neutrophil count (hematoxylin and eosin stain kit EMD 65044/93). Immunostaining was carried out using standard methods. A minimum of four biological replicates were used for each condition studied. Mice were assigned a random number and color at the start of the experiment and were randomized. Technicians carrying out the experiments were blinded to the identity of the samples. Tissue samples were assigned a random study number such that the technician performing the analysis was blinded. Unblinding for the purpose of data analysis occurred only after all data had been collected.

[3] = target: T2, HMGB1 (Homo sapiens, UniProt P09429); assay: Immunofluorescence of HMGB1 localization in A549 cells; type: cell-based; design: endogenous in cells; host or cells: A549
T2 sequence (P09429 1-215): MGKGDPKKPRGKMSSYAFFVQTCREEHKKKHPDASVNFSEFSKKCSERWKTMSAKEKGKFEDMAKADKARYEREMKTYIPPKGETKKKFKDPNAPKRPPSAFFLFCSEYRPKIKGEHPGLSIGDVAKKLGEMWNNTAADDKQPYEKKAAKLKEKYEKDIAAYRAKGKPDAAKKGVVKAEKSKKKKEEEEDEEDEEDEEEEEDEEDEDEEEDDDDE
Description: Cells were grown on glass coverslips in 24-well plates and either infected or induced with doxycycline (0.2 μg/mL). Cells were harvested for immunofluorescence at the indicated time points, washed in phosphate-buffered saline (PBS), fixed in 4% paraformaldehyde for 15 minutes and post-fixed with 100% ice-cold methanol for 5 minutes. Coverslips were then blocked and stained as described (Lilley et al. (2011) PLoS Pathog., 7:e1002084) and mounted using ProLong Gold Antifade Reagent (Life Technologies). Immunofluorescence was visualized using a Zeiss LSM Confocal microscope and ZEN 2011 software. Images were processed using ImageJ and assembled with Adobe CS6. All scale bars show in the Figures are 10 μm unless otherwise stated.

B1: protein VII: mature protein VII of human adenovirus type 5 (SEQ ID NO:1), expressed in cells, mostly with C-terminal HA tag (protein)
chain: AKKRSDQHPVRVRGHYRAPWGAHKRGRTGRTTVDDAIDAVVEEARNYTPTPPPVSTVDAAIQTVVRGARRYAKMKRRRRRVARRHRRRPGTAAQRAAAALLNRARRTGRRAAMRAARRLAAGIVTVPPRSRRRAAAAAAAAISAMTQGRRGNVYWVRDSVSGLRVPVRTRPPRN
modifications: C-terminal HA tag; Human adenovirus 5
- Chromatin association of HMGB2 (fractionated nuclei) [1]: Increased chromatin association
- HMGB1 in BAL fluid [2]: significantly less HMGB1
- Neutrophils in BAL fluid [2]: fewer neutrophils
- Relocalization of HMGB1 (immunofluorescence) [3]: relocalization of HMGB1
